Test in all cases: cell_activity; CHO extrachromosomal LacZ assay
Data set [1] addresses T1, I-CreI heterodimer HBB5.3_B2 / HBB5.4_B1 (Chlamydomonas reinhardtii, UniProt P05725;P05725 SEQ:1-167,SEQ:1-167).
T1 chain 1: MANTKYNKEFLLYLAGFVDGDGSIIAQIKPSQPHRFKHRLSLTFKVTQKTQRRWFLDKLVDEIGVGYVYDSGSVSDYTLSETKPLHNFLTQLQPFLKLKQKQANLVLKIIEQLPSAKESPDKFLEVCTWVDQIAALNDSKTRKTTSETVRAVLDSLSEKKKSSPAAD
T1 chain 2: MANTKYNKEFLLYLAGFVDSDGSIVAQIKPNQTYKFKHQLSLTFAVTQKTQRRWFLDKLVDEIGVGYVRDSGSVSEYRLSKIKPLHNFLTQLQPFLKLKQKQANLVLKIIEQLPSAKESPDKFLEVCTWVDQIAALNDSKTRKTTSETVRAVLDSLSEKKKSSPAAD
On the procedure: (§1) Several I-CreI refined mutants able to efficiently cleave the HBB 5 target in yeast when forming heterodimers were identified in example 7. In order to validate and characterize the heterodimer displaying the maximal efficacy to cleave the HBB 5 sequence in CHO cells, the efficiency of combinations of mutants able to cut the HBB 5 target were tested using an extrachromosomal assay in mammalian cells.
(§2) CHO cells were transfected with Polyfect® transfection reagent according to the supplier's protocol (QIAGEN). 72 hours after transfection, culture medium was removed and 150 μl of lysis/revelation buffer for β-galactosidase liquid assay was added (typically 1 liter of buffer contained: 100 ml of lysis buffer (Tris-HCl 10 mM pH7.5, NaCl 150 mM, Triton X100 0.1%, BSA 0.1 mg/ml, protease inhibitors), 10 ml of Mg 100×buffer (MgCl₂ 100 mM, β-mercaptoethanol 35%), 110 ml ONPG 8 mg/ml and 780 ml of sodium phosphate 0.1M pH7.5). After incubation at 37° C., OD was measured at 420 nm. The entire process was performed on an automated Velocity11 BioCel platform. Per assay, 150 ng of target vector was cotransfected with 12.5 ng of each HBB5 mutant expression vector (12.5 ng of vector encoding the mutant cleaving the palindromic HBB5.3 target and 12.5 ng of vector encoding the mutant cleaving palindromic HBB5.4 target).

The target in data set [2] is T2, I-CreI heterodimer HBB5.3_E3 / HBB5.4_B1 (Chlamydomonas reinhardtii, UniProt P05725;P05725 SEQ:1-167,SEQ:1-167).
T2 chain 1: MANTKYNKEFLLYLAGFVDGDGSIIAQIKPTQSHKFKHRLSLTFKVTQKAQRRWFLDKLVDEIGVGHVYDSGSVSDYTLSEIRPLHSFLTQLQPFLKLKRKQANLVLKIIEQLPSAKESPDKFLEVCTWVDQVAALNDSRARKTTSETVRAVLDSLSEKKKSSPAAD
T2 chain 2: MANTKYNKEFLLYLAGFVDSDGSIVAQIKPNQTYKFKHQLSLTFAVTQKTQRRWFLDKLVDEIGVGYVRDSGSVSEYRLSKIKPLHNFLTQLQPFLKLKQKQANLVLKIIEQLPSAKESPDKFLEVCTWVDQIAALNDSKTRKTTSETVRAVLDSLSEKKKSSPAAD
On the procedure:
as §1, §2

The target in data set [3] is T3, I-CreI heterodimer HBB5.3_B2 / HBB5.4_A6 (Chlamydomonas reinhardtii, UniProt P05725;P05725 SEQ:1-167,SEQ:1-167).
T3 chain 1: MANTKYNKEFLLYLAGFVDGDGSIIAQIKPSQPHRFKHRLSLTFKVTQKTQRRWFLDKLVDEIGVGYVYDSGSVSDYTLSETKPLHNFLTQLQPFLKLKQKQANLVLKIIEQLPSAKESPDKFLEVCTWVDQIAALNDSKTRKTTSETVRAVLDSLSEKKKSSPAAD
T3 chain 2: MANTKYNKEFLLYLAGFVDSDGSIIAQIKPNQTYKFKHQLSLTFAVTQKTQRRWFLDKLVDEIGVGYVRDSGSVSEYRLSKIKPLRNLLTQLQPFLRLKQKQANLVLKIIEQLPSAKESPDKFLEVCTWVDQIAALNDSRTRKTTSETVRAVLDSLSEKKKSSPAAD
On the procedure:
as §1, §2

The target of data set [4] is T4, I-CreI heterodimer HBB5.3_B2 / HBB5.4_A5 (Chlamydomonas reinhardtii, UniProt P05725;P05725 SEQ:1-167,SEQ:1-167).
T4 chain 1: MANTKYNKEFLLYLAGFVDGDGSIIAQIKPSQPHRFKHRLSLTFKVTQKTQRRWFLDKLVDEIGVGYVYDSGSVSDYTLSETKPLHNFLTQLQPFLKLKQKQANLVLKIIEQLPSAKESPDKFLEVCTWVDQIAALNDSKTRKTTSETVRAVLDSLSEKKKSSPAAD
T4 chain 2: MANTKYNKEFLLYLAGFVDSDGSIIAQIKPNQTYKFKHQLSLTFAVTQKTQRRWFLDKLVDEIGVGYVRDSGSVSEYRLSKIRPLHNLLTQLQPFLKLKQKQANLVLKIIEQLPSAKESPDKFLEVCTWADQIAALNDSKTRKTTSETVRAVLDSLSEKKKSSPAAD
On the procedure: as §1, §2

The target of data set [5] is T5, I-CreI heterodimer HBB5.3_A3 / HBB5.4_B1 (Chlamydomonas reinhardtii, UniProt P05725;P05725 SEQ:1-167,SEQ:1-167).
T5 chain 1: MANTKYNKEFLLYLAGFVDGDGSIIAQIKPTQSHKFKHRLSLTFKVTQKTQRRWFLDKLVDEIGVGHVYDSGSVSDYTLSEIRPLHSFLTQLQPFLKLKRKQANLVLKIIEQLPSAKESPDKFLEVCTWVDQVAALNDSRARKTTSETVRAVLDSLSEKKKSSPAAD
T5 chain 2: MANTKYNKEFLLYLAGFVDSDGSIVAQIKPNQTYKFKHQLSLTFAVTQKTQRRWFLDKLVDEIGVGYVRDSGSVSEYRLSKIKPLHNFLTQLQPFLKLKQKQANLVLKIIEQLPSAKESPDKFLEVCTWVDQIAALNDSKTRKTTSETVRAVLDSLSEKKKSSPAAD
On the procedure: as §1, §2

Data set [6] concerns the target T6, I-CreI heterodimer HBB5.3_A2 / HBB5.4_A5 (Chlamydomonas reinhardtii, UniProt P05725;P05725 SEQ:1-167,SEQ:1-167).
T6 chain 1: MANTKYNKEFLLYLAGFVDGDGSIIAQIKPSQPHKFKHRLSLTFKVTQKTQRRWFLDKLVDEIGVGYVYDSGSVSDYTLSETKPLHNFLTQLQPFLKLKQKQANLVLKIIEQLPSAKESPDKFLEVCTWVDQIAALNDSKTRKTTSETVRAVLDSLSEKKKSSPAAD
T6 chain 2: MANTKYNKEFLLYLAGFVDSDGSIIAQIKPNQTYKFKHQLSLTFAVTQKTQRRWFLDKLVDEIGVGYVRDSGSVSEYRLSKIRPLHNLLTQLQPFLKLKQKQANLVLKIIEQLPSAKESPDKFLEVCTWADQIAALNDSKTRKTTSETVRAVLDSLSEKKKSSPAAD
On the procedure: as §1, §2

In data set [7] the target is T7, I-CreI heterodimer HBB5.3_E3 / HBB5.4_A5 (Chlamydomonas reinhardtii, UniProt P05725;P05725 SEQ:1-167,SEQ:1-167).
T7 chain 1: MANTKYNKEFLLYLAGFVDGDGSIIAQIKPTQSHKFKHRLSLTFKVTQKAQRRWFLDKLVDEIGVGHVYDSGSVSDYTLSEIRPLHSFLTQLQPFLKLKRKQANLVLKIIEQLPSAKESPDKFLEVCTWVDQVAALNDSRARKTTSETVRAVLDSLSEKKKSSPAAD
T7 chain 2: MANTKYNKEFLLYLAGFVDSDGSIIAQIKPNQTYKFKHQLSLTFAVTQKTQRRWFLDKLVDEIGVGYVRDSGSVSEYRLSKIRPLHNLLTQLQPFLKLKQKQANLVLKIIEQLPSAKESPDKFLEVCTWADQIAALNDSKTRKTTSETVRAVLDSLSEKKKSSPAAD
On the procedure:
as §1, §2

Data set [8] deals with T8, I-CreI heterodimer HBB5.3_A2 / HBB5.4_B1 (Chlamydomonas reinhardtii, UniProt P05725;P05725 SEQ:1-167,SEQ:1-167).
T8 chain 1: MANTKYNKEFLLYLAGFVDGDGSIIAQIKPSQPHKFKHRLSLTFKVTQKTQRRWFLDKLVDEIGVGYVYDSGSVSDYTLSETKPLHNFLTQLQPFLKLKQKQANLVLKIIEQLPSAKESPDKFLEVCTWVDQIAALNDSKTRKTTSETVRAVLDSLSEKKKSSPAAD
T8 chain 2: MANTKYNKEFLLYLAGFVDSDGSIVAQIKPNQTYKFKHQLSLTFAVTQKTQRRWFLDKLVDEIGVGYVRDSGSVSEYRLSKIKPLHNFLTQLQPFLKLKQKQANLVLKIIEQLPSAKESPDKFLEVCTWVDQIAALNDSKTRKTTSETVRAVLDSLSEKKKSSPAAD
On the procedure:
as §1, §2

Data set [9] concerns the target T9, I-CreI heterodimer HBB5.3_A3 / HBB5.4_A5 (Chlamydomonas reinhardtii, UniProt P05725;P05725 SEQ:1-167,SEQ:1-167).
T9 chain 1: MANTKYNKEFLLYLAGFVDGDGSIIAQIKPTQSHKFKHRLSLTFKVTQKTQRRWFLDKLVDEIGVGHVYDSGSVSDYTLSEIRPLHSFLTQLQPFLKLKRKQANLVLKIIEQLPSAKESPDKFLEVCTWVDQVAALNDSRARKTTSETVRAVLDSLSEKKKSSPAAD
T9 chain 2: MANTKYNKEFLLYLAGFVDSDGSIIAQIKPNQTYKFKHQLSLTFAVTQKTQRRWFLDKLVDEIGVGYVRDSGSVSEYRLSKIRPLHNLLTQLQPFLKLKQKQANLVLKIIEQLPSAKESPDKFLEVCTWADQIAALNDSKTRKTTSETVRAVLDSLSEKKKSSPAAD
On the procedure:
as §1, §2

The target in data set [10] is T10, I-CreI heterodimer HBB5.3_E3 / HBB5.4_A6 (Chlamydomonas reinhardtii, UniProt P05725;P05725 SEQ:1-167,SEQ:1-167).
T10 chain 1: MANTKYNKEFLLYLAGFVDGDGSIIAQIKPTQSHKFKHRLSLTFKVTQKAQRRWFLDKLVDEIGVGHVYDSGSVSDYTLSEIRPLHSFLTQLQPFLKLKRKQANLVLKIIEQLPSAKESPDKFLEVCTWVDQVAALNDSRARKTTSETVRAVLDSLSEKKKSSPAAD
T10 chain 2: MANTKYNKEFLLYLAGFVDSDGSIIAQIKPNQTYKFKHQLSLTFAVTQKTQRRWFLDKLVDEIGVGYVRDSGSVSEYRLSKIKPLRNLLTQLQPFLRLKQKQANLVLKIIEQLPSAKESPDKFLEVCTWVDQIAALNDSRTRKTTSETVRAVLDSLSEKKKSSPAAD
On the procedure: as §1, §2

1 molecule from US20100229252, “MEGANUCLEASE VARIANTS CLEAVING A DNA TARGET SEQUENCE FROM THE HUMAN HEMOGLOBIN BETA GENE AND USES THEREOF” (CELLECTIS, published 2010) can be followed below.

B1: HBB5 (dsDNA)
DNA 1: CAAGACAGGTTTAAGGAGACCA
DNA 2: TGGTCTCCTTAAACCTGTCTTG
As to B1, the activity is 0.33 absorbance units in data set [1]; 0.37 absorbance units in data set [2]; 0.54 absorbance units in data set [3]; 0.5 absorbance units in data set [4]; 0.2 absorbance units in data set [5]; 0.78 absorbance units in [6]. In addition, the activity in [7] came out at 0.46 absorbance units; in data set [8], 0.42 absorbance units; in data set [9], 0.86 absorbance units; in data set [10] it was 0.71 absorbance units.
